The values that follow come from patent US20220160760A1.

In the assay the target is carcinoembryonic antigen (CEA) (UniProt P06731). Nature of the assay: cell-based or functional assay.
Sequence of UniProt P06731 (P06731 35-702 limits assumed): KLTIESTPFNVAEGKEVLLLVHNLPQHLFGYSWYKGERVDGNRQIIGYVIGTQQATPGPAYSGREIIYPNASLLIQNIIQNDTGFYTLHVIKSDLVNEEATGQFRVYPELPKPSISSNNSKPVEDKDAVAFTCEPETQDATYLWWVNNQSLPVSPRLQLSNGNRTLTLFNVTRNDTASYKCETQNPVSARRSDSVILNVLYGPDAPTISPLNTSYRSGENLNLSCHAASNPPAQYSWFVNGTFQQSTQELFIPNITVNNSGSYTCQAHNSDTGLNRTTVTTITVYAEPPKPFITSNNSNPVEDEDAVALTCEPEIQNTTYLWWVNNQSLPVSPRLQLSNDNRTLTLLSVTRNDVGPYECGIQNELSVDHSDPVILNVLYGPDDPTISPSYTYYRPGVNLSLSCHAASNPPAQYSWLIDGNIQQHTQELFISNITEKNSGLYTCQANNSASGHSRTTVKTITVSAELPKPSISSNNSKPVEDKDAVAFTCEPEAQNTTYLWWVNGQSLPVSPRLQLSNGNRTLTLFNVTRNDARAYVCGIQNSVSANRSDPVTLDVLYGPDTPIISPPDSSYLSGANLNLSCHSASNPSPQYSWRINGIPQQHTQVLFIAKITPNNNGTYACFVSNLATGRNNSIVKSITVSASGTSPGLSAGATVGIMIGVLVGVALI

“MFE23 CoStAR (MFE23.scFv fused to full length human CD28) (receptor)” yielded an IL-2 secretion by ELISA, T-cells mixed with LoVo-OKT3 cells, average of three donors (non-transduced cells 0.80 ng/ml) of 5 ng/mL.
